Assays:
IgG [1] = test: SPR, Biacore 4000; IgG amine-coupled to CM5 chip, C domain construct as analyte
IgG [2] = test: column chromatography, ligand coupled to agarose, IgG loaded at 1 mg/ml, before alkali treatment

## (Native C-domain) 4
IgG [1]
  Kd: 7.18 nM
IgG [2]
  Initial IgG capability (dynamic binding capacity at 10% breakthrough): 165 mg/mL

From US20250154208A1
